Experimental data: patent US5646028A, “Alkaline serine protease streptomyces griseus var. alkaliphus having enhanced stability against urea or guanidine” (The Clorox Company, priority 1995, dated 1997)
Where two headings read alike, the source gives them in different places. One block for each molecule: values may come before it. *1 amine or outer side, *2 acyl side, *3 side chain or, on linkers, in order; H or OH if unused. Where a SMILES comes first, the peptide text is derived from it. The star is where a group is joined. pNA = O=[N+]([O-])c1ccc(N*)cc1; Suc = O=C(CCC(=O)[*:2])[*:1]

Columns and labels:
SGPC = test: Substrate specificity of SGPC with tetrapeptide substrates sAAPXpNA; type: biochemical, Streptomyces griseus; details: pH 8.0, 10% DMSO, 24° C.
Method: The enzyme was assayed with a series of tetrapeptide substrates which had the form succinyl-Ala-Ala-Pro-X-para-nitroanilide (sAAPXpNA) (SEQ ID NOS. 3-20), where X is the P1 amino acid (the residue found on the N-terminal side of the bond which is cleaved). Kinetics constants kcat and Km were determined by assaying an appropriate dilution of SGPC with eight different concentrations of each substrate. Each substrate was dissolved in 100% DMSO to a concentration of 100 mM with the exception of sAAPQpNA (SEQ ID NO. 13) which was soluble only to a concentration of 15 mM. Five ul of an appropriate dilution of SGPC was placed in the wells of a microtiter dish. The reaction was initiated by adding 95 ul of the reaction mixture which was comprised of 50 ul of sodium bicine, pH 8.0, 35 ul of water, and 10 ul of the appropriate concentration of substrate in DMSO. The final concentration of DMSO was 10% in all of the reactions. All substrate concentrations were done in triplicate and rates were determined at 24° C. using a microtiter plate reader.

[1] = target: succinyl-Ala-Ala-Pro-Phe-para-nitroanilide
[2] = for % activity compared to the non-treated control: 24° C., pH 5.0
[3] = Wash performance test, beaker-scale grass stain removal from cotton swatches
pH profile of SGPC = type: biochemical; details: 2 mM SAAPFpNA, 10% DMSO

Molecule: C[C@H](NC(=O)CCC(=O)O)C(=O)N[C@@H](C)C(=O)N1CCC[C@H]1C(=O)N[C@@H](CCCNC(=N)N)C(=O)Nc1ccc([N+](=O)[O-])cc1 [sAAPRpNA] (Suc-AAPR-pNA)
- Km (SGPC): 4170 µM
- kcat (SGPC): 16.7 S^-1
- kcat /Km (SGPC): 4,001 M^-1 S^-1

Molecule: C[C@H](NC(=O)CCC(=O)O)C(=O)N[C@@H](C)C(=O)N1CCC[C@H]1C(=O)N[C@@H](Cc1ccccc1)C(=O)Nc1ccc([N+](=O)[O-])cc1 [sAAPFpNA, succinyl-Ala-Ala-Pro-Phe-para-nitroanilide] (Suc-AAPF-pNA)
- Km (SGPC): 290 µM
- kcat (SGPC): 39.7 S^-1
- kcat /Km (SGPC): 137,600 M^-1 S^-1

Molecule: CC(C)C[C@H](NC(=O)[C@@H]1CCCN1C(=O)[C@H](C)NC(=O)[C@H](C)NC(=O)CCC(=O)O)C(=O)Nc1ccc([N+](=O)[O-])cc1 [sAAPLpNA] (Suc-AAPL-pNA)
- Km (SGPC): 920 µM
- kcat (SGPC): 24.8 S^-1
- kcat /Km (SGPC): 27,030 M^-1 S^-1

Molecule: CSCC[C@H](NC(=O)[C@@H]1CCCN1C(=O)[C@H](C)NC(=O)[C@H](C)NC(=O)CCC(=O)O)C(=O)Nc1ccc([N+](=O)[O-])cc1 [sAAPMpNA] (Suc-AAPM-pNA)
- Km (SGPC): 390 µM
- kcat (SGPC): 39.3 S^-1
- kcat /Km (SGPC): 100,400 M^-1 S^-1

Molecule: C[C@H](NC(=O)CCC(=O)O)C(=O)N[C@@H](C)C(=O)N1CCC[C@H]1C(=O)N[C@@H](CCC(=O)O)C(=O)Nc1ccc([N+](=O)[O-])cc1 [sAAPEpNA] (Suc-AAPE-pNA)
- rates seen with the substrate (SGPC): too samll to be reliable

Molecule: C[C@H](NC(=O)CCC(=O)O)C(=O)N[C@@H](C)C(=O)N1CCC[C@H]1C(=O)N[C@H](C(=O)Nc1ccc([N+](=O)[O-])cc1)[C@@H](C)O [sAAPTpNA] (Suc-AAPT-pNA)
- Km (SGPC): 4340 µM
- kcat (SGPC): 7.69 S^-1
- kcat /Km (SGPC): 1,769 M^-1 S^-1

Molecule: C[C@H](NC(=O)CCC(=O)O)C(=O)N[C@@H](C)C(=O)N1CCC[C@H]1C(=O)N[C@@H](CC(N)=O)C(=O)Nc1ccc([N+](=O)[O-])cc1 [sAAPNpNA] (Suc-AAPN-pNA)
- Km (SGPC): 2910 µM
- kcat (SGPC): 35.3 S^-1
- kcat /Km (SGPC): 12,160 M^-1 S^-1

Molecule: C[C@H](NC(=O)CCC(=O)O)C(=O)N[C@@H](C)C(=O)N1CCC[C@H]1C(=O)N[C@@H](Cc1ccc(O)cc1)C(=O)Nc1ccc([N+](=O)[O-])cc1 [sAAPYpNA] (Suc-AAPY-pNA)
- Km (SGPC): 490 µM
- kcat (SGPC): 27.7 S^-1
- kcat /Km (SGPC): 61,770 M^-1 S^-1

Molecule: C[C@H](NC(=O)CCC(=O)O)C(=O)N[C@@H](C)C(=O)N1CCC[C@H]1C(=O)N[C@@H](Cc1cnc[nH]1)C(=O)Nc1ccc([N+](=O)[O-])cc1 [sAAPHpNA] (Suc-AAPH-pNA)
- Km (SGPC): 1090 µM
- kcat (SGPC): 24.0 S^-1
- kcat /Km (SGPC): 21,960 M^-1 S^-1

- kcat /Km (sAAPTpNA): 1770 M^-1 S^-1
- kcat /Km (sAAPSpNA): 1890 M^-1 S^-1
- kcat /Km (sAAPHpNA): 22000 M^-1 S^-1
- kcat /Km (sAAPApNA): 6830 M^-1 S^-1
- kcat /Km (sAAPQpNA): 2550 M^-1 S^-1
- kcat /Km [1]: 138000 M^-1 S^-1
- kcat /Km (sAAPCpNA): 14400 M^-1 S^-1
- kcat /Km (sAAPNpNA): 12200 M^-1 S^-1
- kcat /Km (sAAPMpNA): 100000 M^-1 S^-1
- kcat /Km (sAAPYpNA): 61800 M^-1 S^-1
- kcat /Km (sAAPVpNA): 1420 M^-1 S^-1
- kcat /Km (sAAPLpNA): 27000 M^-1 S^-1
- kcat /Km (sAAPRpNA): 4000 M^-1 S^-1
- kcat /Km (sAAPDpNA): 351 M^-1 S^-1
- kcat /Km (sAAPKpNA): 2580 M^-1 S^-1
Molecule: S. griseus protease C (enzyme)

Molecule: CC(C)[C@H](NC(=O)[C@@H]1CCCN1C(=O)[C@H](C)NC(=O)[C@H](C)NC(=O)CCC(=O)O)C(=O)Nc1ccc([N+](=O)[O-])cc1 [sAAPVpNA] (Suc-AAPV-pNA)
- Km (SGPC): 1080 µM
- kcat (SGPC): 0.53 S^-1
- kcat /Km (SGPC): 1,422 M^-1 S^-1

- effectiveness against grass stain compared with Savinase ([3]; equal weight of protease in the wash liquor): more effective than Savinase
- (delta) % SRE (percent stain removal over a control containing no enzyme) ([3]; grass stain, cotton swatches, 37° C., powdered detergent 104 g/69 liters, pH 10.5, 0.25 mg protease/500 ml wash liquor): 59.6%
B1: SGPC: alkaline serine protease from Streptomyces griseus var. alkaliphilus No. 33, apparent molecular weight about 19,000 daltons (protein, UniProt P52320 203-457, looked up)
Streptogrisin-C: ADIRGGDAYYMNGSGRCSVGFSVTRGTQNGFATAGHCGRVGTTTNGVNQQAQGTFQGSTFPGRDIAWVATNANWTPRPLVNGYGRGDVTVAGSTASVVGASVCRSGSTTGWHCGTIQQLNTSVTYPEGTISGVTRTSVCAEPGDSGGSYISGSQAQGVTSGGSGNCSSGGTTYFQPINPLLQAYGLTLVTSGGGTPTDPPTTPPTDSPGGTWAVGTAYAAGATVTYGGATYRCLQAHTAQPGWTPADVPALWQRV
- % activity compared to the non-treated control ([2]; 2 M Guanidine, 1 hour): 125.7%
- % activity compared to the non-treated control ([2]; 2 M Guanidine, 24 hours): 105.7%
- % activity compared to the non-treated control ([2]; 2 M Urea, 1 hour): 103.5%
- % activity compared to the non-treated control ([2]; 2 M Urea, 24 hours): 98.1%
- effect on the activity (in words) ([2]; 2 M to 6 M urea, 24 hr vs 1 hr): very little effect
- % activity compared to the non-treated control ([2]; 4 M Guanidine, 1 hour): 130.4%
- % activity compared to the non-treated control ([2]; 4 M Guanidine, 24 hours): 55.8%
- % activity compared to the non-treated control ([2]; 4 M Urea, 1 hour): 118.2%
- % activity compared to the non-treated control ([2]; 4 M Urea, 24 hours): 112.4%
- % activity compared to the non-treated control ([2]; 6 M Guanidine, 1 hour): 98.0%
- % activity compared to the non-treated control ([2]; 6 M Guanidine, 24 hours): 10.1%
- % activity compared to the non-treated control ([2]; 6 M Urea, 1 hour): 116.4%
- % activity compared to the non-treated control ([2]; 6 M Urea, 24 hours): 112.9%
- effect on the activity (in words) ([2]; Guanidine 4 M to 6 M, 24 hr): substantial losses of activity
- effect on the activity (in words) ([2]; Guanidine at 2 M, 24 hr): slight effect
- pH optimum (in words) (pH profile of SGPC): highly alkaline pH optimum
